Measurements from patent US20190248902A1 (published 2019).
Residue numbers refer to the chain shown, from its start.

T1: human ASGR-1 mutant construct H203 (human, UniProt P07306 1-291)
T1 construct: Arg/Glu scanning: non-arginine residues were changed to arginine; Transiently expressed on CHO-S cells
T1 sequence: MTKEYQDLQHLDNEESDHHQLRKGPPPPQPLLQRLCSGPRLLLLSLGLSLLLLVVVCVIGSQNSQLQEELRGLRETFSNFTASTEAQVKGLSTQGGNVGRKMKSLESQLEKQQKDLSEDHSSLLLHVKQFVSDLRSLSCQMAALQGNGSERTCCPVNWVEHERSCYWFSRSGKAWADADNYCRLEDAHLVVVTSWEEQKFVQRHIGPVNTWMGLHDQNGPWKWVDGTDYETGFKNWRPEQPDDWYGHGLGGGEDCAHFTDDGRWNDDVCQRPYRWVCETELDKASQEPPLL

T2: human ASGR-1 (wild type) (human, UniProt P07306 1-291)
T2 construct: also called wt ASGR1; huASGR-1
T2 sequence: T1 sequence with R203H

B1: 218G4 (antibody, V domains shown)
VH: QVQLVESGGGVVQPGRSLRLSCAASGFTFSSYGLHWVRQAPGKGLEWVAVIWYDGSNKYYADSVKGRFTISRDNSKNTLYLQMNSLRVEDTAVYYCANWYYYYYGMDVWGQGTTVTVSS
VL: QSVLTQPPSVSAAPGQKVTISCSGSSSNIGNNYVSWYQQLPGTAPKLLLYDSNKRPSGIPARFSGSKSGTSATLGITGLQTGDEADYYCGTWDSSLNTVVFGGGTKLTVL
notes: mAb
B2: 194C10 (antibody, V domains shown)
VH: QVQLQQWGAGLLKPSETLSLTCAVSGGSFRYYYWSWIRQPPGKGLEWFGEINHSGSTNYNPSLKSRVTISIDTSKNQFSLKLRSVTAADTAVYYCARDYGAFDIWGQGTMVTVSS
VL: EIVLTQSPGTLSLSPGERATLSCRASPSVNSGYLAWYQQKPGQTPRLLIFGASSRATGIPDRFSASGSGADFTLTISRLEPEDFAVYFCQQYESSPWTFGQGTKVEIK
notes: mAb
B3: 48B12 (antibody, V domains shown)
VH: EVQLLESGGGLVQPGGSLRLSCAASGFTFSSYAMNWVRQAPGKGLEWVSAISGRGGNTFYADSVKGRFTISRDNSKNTLYLQMNSLRAEDTAVYYCAKRETYNWNYEGFDYWGQGTLVTVSS
VL: SYELTQPPSVSVSPGQTARITCSGDALPKKYAYWYQQKSGQAPVLVIYEDSKRPSGIPERFSGSSSGTMATLTISGAQVEDEADYYCNSTDSSGNHVVFGGGTKLTVL
notes: mAb
B4: 75G3 (antibody, V domains shown)
VH: QVQLQQWGAGLLKPSETLSLTCAVYGGSLSGSYWSWIRQPPGKGLEWIGEINLSGSTNYNPSLKSRVTISVDTSKSQFSLTLRSVTAADTAVYYCARDYGGLDYWGQGTLVTVSS
VL: EIVLTQSPGTLSLSPGERATLSCRARQNVDSSYLAWYQQKPGQAPRLLIYGASSRATGIPDRFSGSGSGTDFTLTISRLEPEDFAVFYCQQYERSPWTFGQGTKVEIK
notes: mAb
B5: 72G9 (antibody, V domains shown)
VH: EVQLVESGGGLVKPGGSLRLSCAASGFTFSSYSMNWVRQAPGKGLEWVSSISGSSSYIYYADSVKGRFTISRDNAKNSLYLQMNSLRAEDTAVYFCARGGSRGFDPWGQGTLVTVSS
VL: DIQMTQSPSSLSASVGDRVTITCRASQSITSYLNWYQQKPGKAPKLLIYTASSLQSGVPSRFSGSGSGTDFTLTISSLQPEDFATYYCQQSHSFPFTFGPGTKVDIK
notes: mAb
B6: 176H4 (antibody, V domains shown)
VH: QVQLVESGGGVVQPGRSLRLSCAASGFTFSSYGMHWVRQAPGKGLEWVAIIWYDGSYKYYADSVKGRFTISRDNSKNTLYLQMSSLRAEDTAVYYCARDAHDFWSGYFAYWGQGALVTVSS
VL: DIVMTQTPLSLSVTPGQPASISCKSSQSLLHGDGKTYLYWYLQKPGQPPQLLIYEVSNRFSGVPDRFSGSGSGTDFTLKISRVEAEDVGIYYCMQSIQIPWTFGQGTRVEIK
notes: mAb
B7: 190F8 (antibody, V domains shown)
VH: QVQLVESGGGVVQPGRSLRLSCAASGFTFSTYGMHWVRQAPGKGLEWVAVIWYDGSNKNYADSVKGRFTISRDNSKNTLYLQMNSLRAEDTAVYYCARDQGVGYDGLDVWGQGTTVTVSS
VL: DIQMTQSPSSLSASVGDRVTITCRTSQGIGNYLAWFQQKPGKAPKSLLYKASSLQSGVPSKFSGSGSGTDFTLTISSLQPEDFATYYCQQYMTYPLTFGGGTKVEIK
notes: mAb
B8: 194C1 (antibody, V domains shown)
VH: B7 VH with T31S, K58E, N59H, D99N, Q100R, D105Y
VL: B7 VL with T25A, G30S, L48I, K50A, Q89L, Q90H, M92L
notes: mAb
B9: 197G3 (antibody, V domains shown)
VH: B7 VH with A23V, T31S, Y32H, Q100P, G101S, L107M
VL: DIQMTQSPSSLSASVGDRVTITCRASQGIGNHLAWFQQKPGKAPKSLIYAASSLQSGVPSKFSGSRSGTDFSLTISSLQPEDFATYYCQQYSNYPVTFGPGTKVDIK
notes: mAb
B10: 191G1 (antibody, V domains shown)
VH: B7 VH with T31S, K58E, N59H, Q100R, D105Y
VL: B7 VL with T25A, G30S, L48I, K50A, Q90H, M92L
notes: mAb
B11: 198G3 (antibody, V domains shown)
VH: B7 VH with R19K, S56T, Y80C
VL: B7 VL with T5A, N31K, S56G
notes: mAb
B12: 191G10 (antibody, V domains shown)
VH: B7 VH with T31S
VL: B7 VL with N31K, A51V
notes: mAb
B13: 194A4 (antibody, V domains shown)
VH: QVQLVQSGTEVKKPGASLKVSCKASGYTFTVYYLNWVRQAPGQGLEWMGWINPNSGGTNYAQKFQGRVTMTRDTSISTAYMELSRLRSDDTAVYYCARGYDILTGWGQGTLVTVSS
VL: EIVLTQSPGTLSLSPGERATLSCRASRGVSNIYLAWYQQKPGQAPRLLIYGASNRATGIPDRFSGSGSGTDFTLTISRLEPEDFAVYYCQHNDYSMFTFGPGTKVDIK
notes: mAb
B14: 184E7 (antibody, V domains shown)
VH: QVQLVQSGAEVKTPGASVKVSCRASGYTFTSYNMHWVRQVPGQGLEWMGWINPNNGGSNYTQKFQGRVTMTRDTSISTAYMELSRLRSDDTAVYYCARKFGDWGQGTLVTVSS
VL: DIQMTQSPSSRSASIGERVTITCRASQGISNYLAWIQQKPGTAPKSLIYAASSLQSGVSSRFSGSGFGTDFTITISSVQREDFATYYCQQYNGYPFTFGHGTKVDIK
notes: mAb
B15: 22G5 (antibody, V domains shown)
VH: EVQLLESGGGLVQPGGSLRLSCAASGFTFSSYAMNWVRQAPGMGLEWVSVISRSGGYTYYADSVKGRFTISRDNSKNTLYLQMNSLRAEDTAVYYCASRLAVAGSEAFDIWGQGTLVTVSS
VL: DIQMTQSPSSLSASVGDRVTITCRASQNISSYLNWYQQKQGKAPKLLIYAASSLQNGVPSRFSGRGSGTDFTLTISSLQPEDFATYYCQQSYRTPLFTFGPGTKVDFK
notes: mAb
B16: 193E7 (antibody, V domains shown)
VH: QVQLQQWGAGLLKPSETLSLTCAVYGGSFSGYFWTWIRQPPGKGLEWIGEINHSGSTNYNPSLKSRVTISVDTSKNQFSLKLSSVTAADTAVYYCARDYGADYWGQGTLVAVSA
VL: DIQMTQSPSSLSASVGDRVTITCRASQGIRNDLGWYQQKPGKAPKRLIYSASSLQRGVPSRFSGSGSGTEFTLTISSLQPEDFATYYCLQHKRYPLTFGGGTKVEIK
notes: mAb

Target: T1, human ASGR-1 mutant construct H203
Assay: FACS ratio: 65C12 geomean / this mAb geomean
Procedure, shortened: (§1)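 CHO-S cells transiently expressing wild-type or point-mutant hASGR-1 were stained with antibody at 5 ug/ml for 1 h at 4 °C. Bound antibody was detected by Fc-specific Alexa 647 secondary plus 7-AAD and read by flow cytometry. Ratio is 65C12 geomean divided by test mAb geomean, normalizing for expression.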

| Expression Normalization to mAb 65C12 | Binder |
| --- | --- |
| 3.25 | B1 |
| 1.95 | B2 |
| 1.26 | B3 |
| 1.78 | B4 |
| 1.37 | B5 |
| 2.52 | B6 |
| 1.71 | B7 |
| 2.33 | B8 |
| 7.35 | B9 |
| 2.37 | B10 |
| 1.96 | B11 |
| 1.51 | B12 |
| 2.12 | B13 |
| 1.4 | B14 |
| 1.71 | B15 |
| 1.87 | B16 |

Target: T2, human ASGR-1 (wild type)
Assay: FACS ratio: 65C12 geomean / this mAb geomean
Procedure, shortened: as §1

| Expression Normalization to mAb 65C12 | Binder |
| --- | --- |
| 4.59 | B1 |
| 1.99 | B2 |
| 1.07 | B3 |
| 1.51 | B4 |
| 1.54 | B5 |
| 1.67 | B6 |
| 1.54 | B7 |
| 2.69 | B8 |
| 4.21 | B9 |
| 2.22 | B10 |
| 2.61 | B11 |
| 1.66 | B12 |
| 3.44 | B13 |
| 1.31 | B14 |
| 1.24 | B15 |
| 1.58 | B16 |

Target: T2, human ASGR-1 (wild type)
Assay: FACS, transfected CHO-S cells, mAb 5 ug/ml
Procedure, shortened: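 Transiently transfected CHO-S cells expressing wild-type or mutant hASGR-1 incubated with antibody at 5 ug/ml, 1 h at 4 °C; bound antibody detected by Alexa Fluor 647 anti-Fc plus 7-AAD, by flow cytometry. Binding normalized to expression using an unaffected antibody (65C12), then to wild type; hits defined as >3× IQR above third quartile.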

| FACS Binding Geomean | Binder |
| --- | --- |
| 12200 | B1 |
| 28100 | B2 |
| 52500 | B3 |
| 37200 | B4 |
| 36500 | B5 |
| 33500 | B6 |
| 36500 | B7 |
| 20900 | B8 |
| 13300 | B9 |
| 25300 | B10 |
| 21500 | B11 |
| 33800 | B12 |
| 16300 | B13 |
| 42700 | B14 |
| 45000 | B15 |
| 35500 | B16 |
